Tested on: MS2 coat protein
Assay: apparent KD of MS2 coat protein; designed switch direction (-1 OFF switch, 1 ON switch): -1; higher = weaker reporter binding
Summary of the method: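 RNA switches sharing common flanks were transcribed by stalled E. coli RNA polymerase on Illumina chips. A doubling series of SNAP-549-labelled MS2 coat protein, from 0.7 or 1.5 nM to 3 µM, was applied in Tris-HCl pH 7.5 buffer with KCl, MgCl2, BSA, DTT, tRNA and Tween-20. Each step lasted 0.8–1.5 h at the bottom of the series and 10–20 min at the top. Normalised cluster fluorescence was curve-fitted, giving apparent KD as the per-design median over clusters.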

[1] = Eterna round: R95, input ligand: FMN 200 uM
[2] = Eterna round: R95, input ligand: microRNA oligo, concentration not stated
[3] = Eterna round: R95, input ligand: none
[4] = input ligand: microRNA oligo, concentration not stated

Sequence	apparent KD of MS2 coat protein [1]	apparent KD of MS2 coat protein [2]	apparent KD of MS2 coat protein [3]	apparent KD of MS2 coat protein (input ligand: FMN 200 uM)	apparent KD of MS2 coat protein (input ligand: none)	apparent KD of MS2 coat protein [4]
UUUUUCGAACAAGCUUCGUACAUGAGGAUCACCCAUGUCGGUAGAUUUGAGUAGGUUUGGAUGGAAGUUCGUCUUAU [JR_SV3TOV1_Sub086] (puzzle: Sensor v3, turn-off variant 1)	0.0282 µM	0.0659 µM	0.0329 µM			
AGUGUGUGGCAGGAUAUGCGAUUUAUAGGUGAAGCAGAAGGGUCUACAUGAGGAUCACCCAUGUGUGCGGUUGA [Ex6 #21] (Eterna round: R97, puzzle: Exclusion 6)				0.318 µM	0.16 µM	
GGUGCGUAUGUGAGGAUAUGCUGGUCCUUGGAUCAGCAGAAGGCACAUGAGGAUCACCCAUGUGGUGUCGUUCC [salish99_Bmod_Ex4_020] (puzzle: Brourd's mod of Exclusion 4)		0.363 µM				
UGAACCCAUGUUAGGAUAUCAGGCCGAGGAAGUUCUGAGAAGGGACAUGAGGAUCACCCAUGUAUAAAAGAAAC [Veontiinge] (puzzle: Brourd's mod of Exclusion 4)		0.0636 µM				
GUACUGACAGGAUAUACAUGAGGAUCACCCAUGUCCUUAAGCUGACAAAAGUCAGCGAGUAGAAGGGUCUGUAC [Omei Ex3 Model Bachelor's Dilema v4] (Eterna round: R97, puzzle: Exclusion 3)				0.467 µM	0.0719 µM	
UCGUUCCGUGUAGGAUAUUGGCCUUCCUUGGGCCGAGAAGGACAUGAGGAUCACCCAUGUAUGUUAUUAUCGCGCGUGGCGCAU [Design 87] (Eterna round: R96, puzzle: Exclusion NG 1)				0.0971 µM	0.0186 µM	0.0133 µM
GCCGUAAGUGUGAGGAUAUACCUAUGGAAACAUAGGUAGAAGGCACAUGAGGAUCACCCAUGUCCUUAAUCGGC [Mat - Exclusion 4 - Eli Mod - D4] (Eterna round: R97, puzzle: Brourd's mod of Exclusion 4)				0.366 µM	0.224 µM	
CUCGUGCAGCAAAGCUGUACGAGUACAUGAGGAUCACCCAUGUAGGAUAUGGUACGCAAAGCGUGCUAGAAGGAUAUGUGUAGG [Mat - Exclusion NG 3 - Mod of JL - D87] (Eterna round: R96, puzzle: Exclusion NG 3)				0.0615 µM	0.0505 µM	0.0327 µM
UUUAAUUUUUUUUUUUUACAAGCUUUUUGCUCGUCUUAUACAUGAGGAUCACCCAUGUGGGUAGAAAAUAAAUUAUC [JMF 91] (puzzle: Sensor v3, turn-off variant 2)	0.0441 µM	0.0652 µM	0.0487 µM			
GAGGGUUAAGGAUAUACAUGAGGAUCACCCAUGUAUGGCAAGCCAUAAUCCUCAUUAAGUAGAAGGUAACCUUC [Edederle] (puzzle: Exclusion 3)		0.0118 µM				
CAGUACUGAGGAUAUACAUGAGGAUCACCCAUGUGUUCCAGCUAGGAAACUAGCUAAAGUAGAAGGCAGUACUG [salish99_ex3_r3_092x] (puzzle: Exclusion 3)	0.459 µM	0.0241 µM	0.025 µM			
AGUACUAACACGAAAGUGUUAGUACUAUAAGCUUGUGAUACAUGAGGAUCACCCAUGUCCUCAUAAGCUCGUCUUAU [Mat - Sensor v3 - Turn-off var 2 - D101] (Eterna round: R96, puzzle: Sensor v3, turn-off variant 2)				0.0211 µM	0.0217 µM	0.477 µM
GCGCCAUCGUGAGAUGGCGUAUAUACAUGAGGAUCACCCAUGUAGGAUAUCGAUUGCUUUGCAGUCGAGAAGGGCGUGUAAUUU [JL ENG3 3.92] (Eterna round: R96, puzzle: Exclusion NG 3)				0.0457 µM	0.0348 µM	0.0225 µM
GGUUGGCGAGGAUAUACAUGAGGAUCACCCAUGUGAGAGAAAAAAGUGAGGAAGCAAAGUAGAAGGCGCUGACG [salish99_ex3_r3_034] (puzzle: Exclusion 3)	0.117 µM	0.0428 µM	0.0778 µM			

— the supplement of paper PMC9170038
